# B1: TANC1, Q9C0D5 (peptide)
# chain: PKRSFIESNV
# B2: PDLIM4_iso2, P50479;P50479-1 (peptide)
# chain: VYPNAKVELV
# B3: SARS-CoV-E, P59637 (peptide)
# chain: NLNSSEGVPDLLV
# Assays:
# Assay in all cases: holdup assay
# Parameters in all cases: key: below the threshold = too weak to quantify, mostly under pKd 3.1 to 4
# SHANK1, Q9Y566 = biological target: T1, SHANK1, Q9Y566
# T1 sequence (Q9Y566 658-767, limits assumed, looked up): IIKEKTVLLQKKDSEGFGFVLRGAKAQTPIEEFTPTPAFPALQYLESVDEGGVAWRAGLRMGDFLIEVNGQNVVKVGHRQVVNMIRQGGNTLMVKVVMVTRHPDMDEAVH
# DLG3_3, Q92796 = biological target: T2, DLG3_3, Q92796
# T2 sequence (Q92796 374-475, limits assumed, looked up): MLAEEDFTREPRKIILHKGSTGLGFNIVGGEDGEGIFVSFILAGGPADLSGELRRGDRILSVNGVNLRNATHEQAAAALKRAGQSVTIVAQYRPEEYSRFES
# GRIP1_5, Q9Y3R0 = biological target: T3, GRIP1_5, Q9Y3R0
# T3 sequence (Q9Y3R0 568-668, limits assumed, looked up): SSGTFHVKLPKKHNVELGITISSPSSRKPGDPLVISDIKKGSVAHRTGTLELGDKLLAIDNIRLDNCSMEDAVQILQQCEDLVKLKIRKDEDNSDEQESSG
# DFNB31_2, Q9P202 = biological target: T4, DFNB31_2, Q9P202
# T4 sequence (Q9P202 274-371, limits assumed, looked up): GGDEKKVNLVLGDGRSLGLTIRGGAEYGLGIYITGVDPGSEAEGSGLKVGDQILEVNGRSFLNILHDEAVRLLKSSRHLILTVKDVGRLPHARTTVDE
# MAGI2_6, Q86UL8 = biological target: MAGI2_6, Q86UL8
# Sequence of MAGI2_6, Q86UL8 (Q86UL8 1141-1229): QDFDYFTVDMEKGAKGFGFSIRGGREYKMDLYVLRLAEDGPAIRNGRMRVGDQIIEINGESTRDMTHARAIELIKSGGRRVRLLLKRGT
# NHERF4_1, Q86UT5-2 = biological target: NHERF4_1, Q86UT5-2
# Sequence of NHERF4_1, Q86UT5-2 (Q86UT5 other isoform, or with tags, fused parts or gaps): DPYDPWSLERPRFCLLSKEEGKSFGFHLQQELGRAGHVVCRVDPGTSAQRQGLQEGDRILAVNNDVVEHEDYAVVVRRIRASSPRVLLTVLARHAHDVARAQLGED
# GRID2IP_1, A4D2P6 = biological target: GRID2IP_1, A4D2P6
# Sequence of GRID2IP_1, A4D2P6 (A4D2P6 1-87): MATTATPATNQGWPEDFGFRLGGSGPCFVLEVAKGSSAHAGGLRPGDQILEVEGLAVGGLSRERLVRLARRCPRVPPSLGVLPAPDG
# NHERF3_1, Q5T2W1 = biological target: T5, NHERF3_1, Q5T2W1
# T5 sequence (Q5T2W1 4-100, limits assumed, looked up): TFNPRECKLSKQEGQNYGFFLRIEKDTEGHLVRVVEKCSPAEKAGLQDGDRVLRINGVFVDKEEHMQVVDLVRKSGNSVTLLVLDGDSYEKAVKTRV
# TIAM2, Q8IVF5 = biological target: T6, TIAM2, Q8IVF5
# T6 sequence (Q8IVF5 885-986, limits assumed, looked up): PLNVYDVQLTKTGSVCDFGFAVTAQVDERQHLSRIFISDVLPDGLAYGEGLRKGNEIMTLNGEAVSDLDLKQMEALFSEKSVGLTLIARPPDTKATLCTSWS
# PICK1, Q9NRD5 = biological target: PICK1, Q9NRD5
# Sequence of PICK1, Q9NRD5 (Q9NRD5 17-115): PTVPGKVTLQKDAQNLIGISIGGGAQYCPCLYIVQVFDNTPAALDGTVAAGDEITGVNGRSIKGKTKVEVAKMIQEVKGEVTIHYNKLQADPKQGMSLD
# TJP1_3, Q07157 = biological target: TJP1_3, Q07157
# Sequence of TJP1_3, Q07157 (Q07157 416-512): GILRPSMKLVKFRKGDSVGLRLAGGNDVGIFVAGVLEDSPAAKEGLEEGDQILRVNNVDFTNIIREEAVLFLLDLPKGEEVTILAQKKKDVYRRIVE
# MPP2, Q14168 = biological target: T7, MPP2, Q14168
# T7 sequence (Q14168 180-250, limits assumed, looked up): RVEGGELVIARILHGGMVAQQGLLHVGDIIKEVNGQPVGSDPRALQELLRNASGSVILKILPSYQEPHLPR
# NHERF3_3, Q5T2W1 = biological target: T8, NHERF3_3, Q5T2W1
# T8 sequence (Q5T2W1 238-333, limits assumed, looked up): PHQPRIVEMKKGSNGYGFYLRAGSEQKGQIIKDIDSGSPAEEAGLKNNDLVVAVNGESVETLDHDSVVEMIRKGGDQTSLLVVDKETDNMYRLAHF
# TJP3_3, O95049 = biological target: T9, TJP3_3, O95049
# T9 sequence (O95049 375-456, limits assumed, looked up): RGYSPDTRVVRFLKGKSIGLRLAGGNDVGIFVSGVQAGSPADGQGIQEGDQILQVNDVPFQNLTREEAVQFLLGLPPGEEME
# PTPN3, P26045 = biological target: PTPN3, P26045
# Sequence of PTPN3, P26045 (P26045 505-587): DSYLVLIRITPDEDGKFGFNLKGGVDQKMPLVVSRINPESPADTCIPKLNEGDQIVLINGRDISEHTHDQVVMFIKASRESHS
# NOS1, P29475 = biological target: NOS1, P29475
# Sequence of NOS1, P29475 (P29475 9-101): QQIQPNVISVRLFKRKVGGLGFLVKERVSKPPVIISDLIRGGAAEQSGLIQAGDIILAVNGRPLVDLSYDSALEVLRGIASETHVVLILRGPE
# FRMPD2_2, Q68DX3 = biological target: FRMPD2_2, Q68DX3
# Sequence of FRMPD2_2, Q68DX3 (Q68DX3 944-1038): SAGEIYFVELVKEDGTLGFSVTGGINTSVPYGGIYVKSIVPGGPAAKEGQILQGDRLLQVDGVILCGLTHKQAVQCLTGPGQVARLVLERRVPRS
# Inadl_6, Q8NI35 = biological target: Inadl_6, Q8NI35
# Sequence of Inadl_6, Q8NI35 (Q8NI35 1058-1167): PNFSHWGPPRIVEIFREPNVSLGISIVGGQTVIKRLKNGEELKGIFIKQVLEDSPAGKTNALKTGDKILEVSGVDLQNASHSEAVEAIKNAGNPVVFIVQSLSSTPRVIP
# IL16_1, Q14005 = biological target: IL16_1, Q14005
# Sequence of IL16_1, Q14005 (Q14005 210-306): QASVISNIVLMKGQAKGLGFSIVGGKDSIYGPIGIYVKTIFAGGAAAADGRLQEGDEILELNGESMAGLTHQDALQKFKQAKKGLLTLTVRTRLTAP
# DLG4_3, P78352 = biological target: DLG4_3, P78352
# Sequence of DLG4_3, P78352 (P78352 306-403): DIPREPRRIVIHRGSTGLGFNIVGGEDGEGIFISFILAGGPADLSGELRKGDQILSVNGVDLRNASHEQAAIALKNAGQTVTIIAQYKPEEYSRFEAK
# DLG1_3, Q12959 = biological target: DLG1_3, Q12959
# Sequence of DLG1_3, Q12959 (Q12959 457-571): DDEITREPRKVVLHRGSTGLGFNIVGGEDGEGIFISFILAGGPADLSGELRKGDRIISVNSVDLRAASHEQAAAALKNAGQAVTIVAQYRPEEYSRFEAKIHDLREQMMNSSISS
# Inadl_8, Q8NI35 = biological target: Inadl_8, Q8NI35
# Sequence of Inadl_8, Q8NI35 (Q8NI35 1425-1530): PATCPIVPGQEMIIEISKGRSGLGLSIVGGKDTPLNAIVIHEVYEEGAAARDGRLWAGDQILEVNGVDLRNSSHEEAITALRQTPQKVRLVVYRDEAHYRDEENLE
# DLG4_1, P78352 = biological target: DLG4_1, P78352
# Sequence of DLG4_1, P78352 (P78352 62-152): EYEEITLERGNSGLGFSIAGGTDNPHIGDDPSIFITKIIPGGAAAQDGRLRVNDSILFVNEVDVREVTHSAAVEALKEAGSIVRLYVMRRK
# GORASP1, Q9BQQ3 = biological target: GORASP1, Q9BQQ3
# Sequence of GORASP1, Q9BQQ3 (Q9BQQ3 1-208): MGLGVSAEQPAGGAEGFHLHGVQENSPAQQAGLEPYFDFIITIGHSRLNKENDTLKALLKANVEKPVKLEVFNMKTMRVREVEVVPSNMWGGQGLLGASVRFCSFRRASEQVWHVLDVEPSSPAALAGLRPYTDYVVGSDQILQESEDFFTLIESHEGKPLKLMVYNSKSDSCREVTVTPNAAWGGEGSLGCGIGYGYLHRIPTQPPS
# LNX2_2, Q8N448 = biological target: T10, LNX2_2, Q8N448
# T10 sequence (Q8N448 334-432, limits assumed, looked up): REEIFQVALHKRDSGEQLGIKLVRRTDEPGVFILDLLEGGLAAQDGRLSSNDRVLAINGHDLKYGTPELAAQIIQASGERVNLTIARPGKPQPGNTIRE
# PCLO, Q9Y6V0 = biological target: T11, PCLO, Q9Y6V0
# T11 sequence (Q9Y6V0 4491-4600, limits assumed, looked up): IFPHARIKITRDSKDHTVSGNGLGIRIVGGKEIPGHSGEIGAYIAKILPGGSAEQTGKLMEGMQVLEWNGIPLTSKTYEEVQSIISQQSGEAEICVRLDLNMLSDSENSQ
# MAGI2_2, Q86UL8 = biological target: MAGI2_2, Q86UL8
# Sequence of MAGI2_2, Q86UL8 (Q86UL8 410-522): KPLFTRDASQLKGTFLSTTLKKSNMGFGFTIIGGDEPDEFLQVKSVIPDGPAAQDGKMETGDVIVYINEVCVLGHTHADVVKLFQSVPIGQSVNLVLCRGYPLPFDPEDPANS
# [1] = plain residues with an end cap or a label only (N-terminal biotin on a linker: ado-ado)
# [2] = plain residues with an end cap or a label only (N-terminal biotin on a linker: (peg)3)
binder,measurement,setting,value
B1,pKd,"SHANK1, Q9Y566; [1]",below the threshold
same,pKd,"DLG3_3, Q92796; [1]",4.23
same,pKd,"GRIP1_5, Q9Y3R0; [1]",below the threshold
same,pKd,"DFNB31_2, Q9P202; [1]",below the threshold
same,pKd,"MAGI2_6, Q86UL8; [1]",4.09
same,pKd,"NHERF4_1, Q86UT5-2; [1]",below the threshold
same,pKd,"GRID2IP_1, A4D2P6; [1]",below the threshold
same,pKd,"NHERF3_1, Q5T2W1; [1]",4.3
same,pKd,"TIAM2, Q8IVF5; [1]",below the threshold
same,pKd,"PICK1, Q9NRD5; [1]",4.14
same,pKd,"TJP1_3, Q07157; [1]",below the threshold
same,pKd,"MPP2, Q14168; [1]",below the threshold
same,pKd,"NHERF3_3, Q5T2W1; [1]",below the threshold
same,pKd,"TJP3_3, O95049; [1]",below the threshold
same,pKd,"PTPN3, P26045; [1]",4.57
same,pKd,"NOS1, P29475; [1]",below the threshold
same,pKd,"FRMPD2_2, Q68DX3; [1]",3.8
same,pKd,"Inadl_6, Q8NI35; [1]",below the threshold
same,pKd,"IL16_1, Q14005; [1]",4.83
same,pKd,"DLG4_3, P78352; [1]",4.27
same,pKd,"DLG1_3, Q12959; [1]",4.32
same,pKd,"Inadl_8, Q8NI35; [1]",4.15
same,pKd,"DLG4_1, P78352; [1]",4.73
same,pKd,"GORASP1, Q9BQQ3; [1]",below the threshold
same,pKd,"LNX2_2, Q8N448; [1]",below the threshold
same,pKd,"PCLO, Q9Y6V0; [1]",below the threshold
same,pKd,"MAGI2_2, Q86UL8; [1]",4.81
B2,pKd,"SHANK1, Q9Y566; [1]",below the threshold
same,pKd,"DLG3_3, Q92796; [1]",below the threshold
same,pKd,"GRIP1_5, Q9Y3R0; [1]",below the threshold
same,pKd,"DFNB31_2, Q9P202; [1]",below the threshold
same,pKd,"MAGI2_6, Q86UL8; [1]",below the threshold
same,pKd,"NHERF4_1, Q86UT5-2; [1]",3.98
same,pKd,"GRID2IP_1, A4D2P6; [1]",below the threshold
same,pKd,"NHERF3_1, Q5T2W1; [1]",below the threshold
same,pKd,"TIAM2, Q8IVF5; [1]",below the threshold
same,pKd,"PICK1, Q9NRD5; [1]",4.26
same,pKd,"TJP1_3, Q07157; [1]",below the threshold
same,pKd,"MPP2, Q14168; [1]",below the threshold
same,pKd,"NHERF3_3, Q5T2W1; [1]",below the threshold
same,pKd,"TJP3_3, O95049; [1]",below the threshold
same,pKd,"NOS1, P29475; [1]",4.05
same,pKd,"FRMPD2_2, Q68DX3; [1]",below the threshold
same,pKd,"Inadl_6, Q8NI35; [1]",below the threshold
same,pKd,"IL16_1, Q14005; [1]",below the threshold
same,pKd,"DLG4_3, P78352; [1]",below the threshold
same,pKd,"DLG1_3, Q12959; [1]",below the threshold
same,pKd,"Inadl_8, Q8NI35; [1]",below the threshold
same,pKd,"DLG4_1, P78352; [1]",below the threshold
same,pKd,"GORASP1, Q9BQQ3; [1]",4.48
same,pKd,"LNX2_2, Q8N448; [1]",4.62
same,pKd,"PCLO, Q9Y6V0; [1]",below the threshold
same,pKd,"MAGI2_2, Q86UL8; [1]",below the threshold
B3,pKd,"SHANK1, Q9Y566; [2]",below the threshold
same,pKd,"DLG3_3, Q92796; [2]",below the threshold
same,pKd,"GRIP1_5, Q9Y3R0; [2]",below the threshold
same,pKd,"DFNB31_2, Q9P202; [2]",below the threshold
same,pKd,"MAGI2_6, Q86UL8; [2]",below the threshold
same,pKd,"NHERF4_1, Q86UT5-2; [2]",below the threshold
same,pKd,"GRID2IP_1, A4D2P6; [2]",below the threshold
same,pKd,"NHERF3_1, Q5T2W1; [2]",below the threshold
same,pKd,"TIAM2, Q8IVF5; [2]",below the threshold
same,pKd,"PICK1, Q9NRD5; [2]",below the threshold
same,pKd,"TJP1_3, Q07157; [2]",below the threshold
same,pKd,"MPP2, Q14168; [2]",below the threshold
same,pKd,"NHERF3_3, Q5T2W1; [2]",below the threshold
same,pKd,"TJP3_3, O95049; [2]",below the threshold
same,pKd,"PTPN3, P26045; [2]",below the threshold
same,pKd,"NOS1, P29475; [2]",below the threshold
same,pKd,"FRMPD2_2, Q68DX3; [2]",below the threshold
same,pKd,"Inadl_6, Q8NI35; [2]",below the threshold
same,pKd,"IL16_1, Q14005; [2]",below the threshold
same,pKd,"DLG4_3, P78352; [2]",below the threshold
same,pKd,"DLG1_3, Q12959; [2]",below the threshold
same,pKd,"Inadl_8, Q8NI35; [2]",3.96
same,pKd,"DLG4_1, P78352; [2]",below the threshold
same,pKd,"GORASP1, Q9BQQ3; [2]",below the threshold
same,pKd,"LNX2_2, Q8N448; [2]",4.24
same,pKd,"PCLO, Q9Y6V0; [2]",below the threshold
same,pKd,"MAGI2_2, Q86UL8; [2]",below the threshold

# From paper PMC9482650, “Quantitative fragmentomics allow affinity mapping of interactomes” (Nature Communications, 2022)
